Measured values from US20260139049A1 (PEDIATRIC IMMUNITY AND HEALTHCARE GUANGZHOU BIOTECHNOLOGY, published 2026).

What was measured:
human CLDN9 = biological target: T1, human CLDN9 (human, UniProt O95484 1-217); assay: FACS on 293T-CLDN9 cells
T1 construct: whole, on cells; also called HEK293T-CLDN9
T1 sequence (looked up): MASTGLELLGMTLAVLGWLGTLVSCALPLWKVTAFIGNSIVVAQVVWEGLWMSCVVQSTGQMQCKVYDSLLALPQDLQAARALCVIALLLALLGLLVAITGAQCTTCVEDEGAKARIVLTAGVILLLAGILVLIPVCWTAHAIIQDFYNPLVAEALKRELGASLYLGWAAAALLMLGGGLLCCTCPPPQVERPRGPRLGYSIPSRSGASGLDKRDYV

mouse CLDN6 = biological target: T2, mouse CLDN6 (mouse, UniProt Q9Z262 1-219); assay: FACS on CHO-K1-Mouse CLDN6 cells (FIG. 15)
T2 construct: whole, on cells; also called CHO-K1-Mouse CLDN6
T2 sequence (looked up): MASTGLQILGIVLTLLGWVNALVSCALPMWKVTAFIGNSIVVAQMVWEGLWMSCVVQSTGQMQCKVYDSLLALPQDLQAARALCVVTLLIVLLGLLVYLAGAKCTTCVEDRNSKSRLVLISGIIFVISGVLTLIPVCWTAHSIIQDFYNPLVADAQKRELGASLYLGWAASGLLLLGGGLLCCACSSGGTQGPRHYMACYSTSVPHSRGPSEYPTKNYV

B1: 20A3-2A7 (antibody, human IgG1, kappa, V domains shown)
VH: QAYLQQSGAELVRSGASVKMSCKASGYTFTSYNMHWVKQTPGQGLEWIGYIYPGNGGTNYNQKFKGKATLTADTSSSTAYMQISSLTSEDSAVYFCARWKYYDKTTHYALDYWGQGTLVTVSS
VL: DIVLTQSPASLAVSLGQWATISCRASKSVSTSGYSYIHWHQQKPGQPPKLLIYLASNLESGVPARFSGSGSGTDFTLNIHPVEEEDAATYYCHHSRELPFTFGSGTKLEIKR
notes: chimeric: murine variable regions on human IgG1 constant regions
binding result (human CLDN9): binds | binding result (mouse CLDN6): binds
